Test results from the Immune Epitope Database (IEDB).

Key:
[1] = molecular target: HLA-B*48:01; experiment: IEDB peptide-MHC binding, purified MHC/direct/fluorescence; filed as Kd, often an IC50 or EC50 that approximates it; ≥ and ≤ were set here for values at or beyond the usual limits of such assays
[2] = molecular target: HLA-C*14:02; experiment: as above
[3] = molecular target: HLA-A*26:01; experiment: as above
[4] = molecular target: HLA-A*26:02; experiment: as above; conditions: source organism: Vibrio cholerae V51
[5] = molecular target: HLA-B*15:01; experiment: as above
[6] = molecular target: HLA-B*35:01; experiment: IEDB peptide-MHC binding, purified MHC/competitive/fluorescence; filed as Kd, often an IC50 or EC50 that approximates it; ≥ and ≤ were set here for values at or beyond the usual limits of such assays; conditions: source organism: Mycobacterium tuberculosis H37Rv
[7] = molecular target: HLA-B*58:01; experiment: as above
[8] = molecular target: HLA-A*01:01; experiment: as above
[9] = molecular target: HLA-A*03:01; experiment: as above
[10] = molecular target: HLA-A*26:01; experiment: as above
[11] = molecular target: HLA-B*15:01; experiment: as above
[12] = molecular target: HLA-A*68:01; experiment: IEDB peptide-MHC binding, purified MHC/competitive/radioactivity; filed as Kd, often an IC50 or EC50 that approximates it; ≥ and ≤ were set here for values at or beyond the usual limits of such assays; conditions: source organism: Vaccinia virus WR
[13] = molecular target: HLA-A*33:01; experiment: as above; conditions: source organism: Vaccinia virus WR
[14] = molecular target: HLA-B*58:01; experiment: IEDB peptide-MHC binding, purified MHC/direct/fluorescence; filed as Kd, often an IC50 or EC50 that approximates it; ≥ and ≤ were set here for values at or beyond the usual limits of such assays
[15] = molecular target: HLA-B*27:05; experiment: as above; conditions: source organism: Camelpox virus M-96
[16] = molecular target: HLA-B*46:01; experiment: as above; conditions: source organism: Camelpox virus M-96
[17] = molecular target: HLA-B*40:01; experiment: as above; conditions: source organism: Camelpox virus M-96
[18] = molecular target: HLA-A*02:01; experiment: as above; conditions: source organism: Camelpox virus M-96
[19] = molecular target: HLA-A*31:01; experiment: as above; conditions: source organism: Camelpox virus M-96
[20] = molecular target: HLA-A*11:01; experiment: IEDB peptide-MHC binding, purified MHC/competitive/fluorescence; filed as Kd, often an IC50 or EC50 that approximates it; ≥ and ≤ were set here for values at or beyond the usual limits of such assays; conditions: source organism: Variola virus
[21] = molecular target: HLA-B*57:01; experiment: as above
[22] = molecular target: HLA-B*15:17; experiment: as above; conditions: source organism: Variola virus
[23] = molecular target: HLA-A*69:01; experiment: as above
[24] = molecular target: HLA-B*39:01; experiment: IEDB peptide-MHC binding, purified MHC/direct/fluorescence; filed as Kd, often an IC50 or EC50 that approximates it; ≥ and ≤ were set here for values at or beyond the usual limits of such assays; conditions: source organism: Influenza A virus (A/mallard/Norway/685/05(H9N2))
[25] = molecular target: HLA-C*06:02; experiment: as above
[26] = molecular target: HLA-A*03:01; experiment: as above
[27] = molecular target: HLA-C*12:03; experiment: as above; conditions: source organism: Zaire ebolavirus
[28] = molecular target: HLA-A*68:02; experiment: as above
[29] = molecular target: HLA-A*02:12; experiment: as above; conditions: source organism: Zaire ebolavirus
[30] = molecular target: HLA-A*02:03; experiment: as above
[31] = molecular target: HLA-A*02:19; experiment: as above; conditions: source organism: Zaire ebolavirus
[32] = molecular target: HLA-A*02:16; experiment: as above
[33] = molecular target: HLA-B*27:03; experiment: IEDB peptide-MHC binding, purified MHC/competitive/fluorescence; filed as Kd, often an IC50 or EC50 that approximates it; ≥ and ≤ were set here for values at or beyond the usual limits of such assays
[34] = molecular target: HLA-B*39:01; experiment: as above
[35] = molecular target: HLA-B*18:01; experiment: as above
[36] = molecular target: HLA-A*02:01; experiment: as above; conditions: source organism: Zaire ebolavirus
[37] = molecular target: HLA-A*29:02; experiment: IEDB peptide-MHC binding, purified MHC/direct/fluorescence; filed as Kd, often an IC50 or EC50 that approximates it; ≥ and ≤ were set here for values at or beyond the usual limits of such assays; conditions: source organism: Zaire ebolavirus
[38] = molecular target: HLA-A*02:11; experiment: as above; conditions: source organism: Zaire ebolavirus
[39] = molecular target: HLA-B*46:01; experiment: IEDB peptide-MHC binding, purified MHC/competitive/fluorescence; filed as Kd, often an IC50 or EC50 that approximates it; ≥ and ≤ were set here for values at or beyond the usual limits of such assays
[40] = molecular target: HLA-B*51:01; experiment: as above
[41] = molecular target: HLA-A*69:01; experiment: IEDB peptide-MHC binding, purified MHC/direct/fluorescence; filed as Kd, often an IC50 or EC50 that approximates it; ≥ and ≤ were set here for values at or beyond the usual limits of such assays; conditions: source organism: Francisella tularensis subsp. holarctica LVS
[42] = molecular target: HLA-A*24:03; experiment: IEDB peptide-MHC binding, purified MHC/competitive/fluorescence; filed as Kd, often an IC50 or EC50 that approximates it; ≥ and ≤ were set here for values at or beyond the usual limits of such assays; conditions: source organism: Francisella tularensis subsp. tularensis FSC198
[43] = molecular target: HLA-A*31:01; experiment: as above; conditions: source organism: Francisella tularensis subsp. tularensis FSC198
[44] = molecular target: HLA-C*15:02; experiment: IEDB peptide-MHC binding, purified MHC/direct/fluorescence; filed as Kd, often an IC50 or EC50 that approximates it; ≥ and ≤ were set here for values at or beyond the usual limits of such assays; conditions: source organism: Orthohantavirus andesense
[45] = source organism: Burkholderia orbicola
[46] = source organism: Camelpox virus M-96
[47] = source organism: Zaire ebolavirus
[48] = source organism: Calabazo virus
[49] = source organism: Orthohantavirus andesense

AAAAFEAAL gave a Kd ([1]; source organism: Mycobacterium tuberculosis str. Haarlem) of 0.175 µM and a Kd [2, 45] of 0.166 µM.

AIARGFHFY showed a Kd ([3]; source organism: Vibrio cholerae V51) of 1.07 µM and a Kd [4] of 0.107 µM.

AMAAAAAPY gave a Kd ([5]; source organism: Mycobacterium tuberculosis variant bovis BCG str. Pasteur 1173P2) of 0.294 µM, a Kd ([2]; source organism: Mycobacterium tuberculosis H37Rv) of 0.094 µM and a Kd [6] of 0.0083 µM.

With ASAAHLAAY the Kd [7, 45] was 1.26 µM, the Kd [8, 45] was 0.0236 µM and the Kd [9, 45] was 0.7 µM. For the same sequence, the Kd [10, 45] was 0.775 µM and the Kd [11, 45] was 0.156 µM.

ETIEILRNY showed a Kd [12] of 0.0146 µM, a Kd [13] of 2.14 µM and a Kd [14, 46] of no less than 20 µM. The Kd [15] was no less than 20 µM, the Kd [16] was no less than 20 µM and the Kd [17] was no less than 20 µM. It also gave a Kd [3, 46] of 0.0021 µM, a Kd [1, 46] of no less than 20 µM and a Kd [18] of no less than 20 µM. The Kd [19] was no less than 20 µM, the Kd [20] was no less than 20 µM and the Kd ([8]; source organism: Variola virus) was 3.6 µM. The Kd ([9]; source organism: Variola virus) was 1.95 µM, the Kd ([21]; source organism: Variola virus) was 0.926 µM and the Kd [22] was 0.0869 µM. It also gave a Kd ([23]; source organism: Variola virus) of no less than 20 µM.

HRTLLMNEL gave a Kd [24] of no less than 20 µM and a Kd ([25]; source organism: Influenza A virus (A/nt/60/1968(H3N2))) of no less than 20 µM.

Work on IMYDHLPGF yielded a Kd [26, 47] of no less than 20 µM, a Kd [27] of 0.306 µM and a Kd [28, 47] of no less than 20 µM. The Kd [29] was no less than 20 µM, the Kd [30, 47] was no less than 20 µM and the Kd [31] was no less than 20 µM. The Kd [32, 47] was no less than 20 µM, the Kd [7, 47] was 0.0731 µM and the Kd [33, 47] was no less than 20 µM. It also gave a Kd [21, 47] of no less than 20 µM, a Kd [34, 47] of no less than 20 µM and a Kd [10, 47] of no less than 20 µM. For the same sequence, the Kd [35, 47] was no less than 20 µM, the Kd [36] was no less than 20 µM and the Kd [23, 47] was no less than 20 µM.

Work on ISSGETRSF yielded a Kd [26, 47] of no less than 20 µM, a Kd [37] of no less than 20 µM and a Kd [38] of no less than 20 µM. It also gave a Kd [28, 47] of no less than 20 µM, a Kd [29] of no less than 20 µM and a Kd ([5]; source organism: Nitrococcus mobilis Nb-231) of 3.6 µM. For the same sequence, the Kd [30, 47] was no less than 20 µM, the Kd [31] was no less than 20 µM and the Kd [32, 47] was no less than 20 µM. For the same sequence, the Kd [7, 47] was 0.351 µM, the Kd [33, 47] was no less than 20 µM and the Kd [21, 47] was no less than 20 µM. The Kd [34, 47] was no less than 20 µM, the Kd [39, 47] was no less than 20 µM and the Kd [10, 47] was no less than 20 µM. It also gave a Kd [35, 47] of no less than 20 µM, a Kd [36] of no less than 20 µM and a Kd [40, 47] of no less than 20 µM. The Kd [23, 47] was no less than 20 µM.

Sequence KYYIYRLYF has a Kd ([25]; source organism: Francisella tularensis subsp. tularensis FSC198) of no less than 20 µM, a Kd [41] of no less than 20 µM and a Kd [42] of 0.0008 µM. The Kd [43] was no less than 20 µM.

LVFLGPGLY gave a Kd ([8]; source organism: Homo sapiens) of 0.221 µM.

Sequence RMMATKDSF has a Kd ([14]; source organism: Orthohantavirus moroense) of 0.0065 µM, a Kd [26, 48] of no less than 20 µM and a Kd [28, 48] of no less than 20 µM. The Kd [44] was no less than 20 µM, the Kd [2, 49] was 0.157 µM and the Kd [30, 48] was no less than 20 µM. The Kd [32, 48] was no less than 20 µM, the Kd [33, 49] was no less than 20 µM and the Kd [34, 49] was no less than 20 µM. It also gave a Kd [39, 49] of no less than 20 µM, a Kd [10, 49] of no less than 20 µM and a Kd [35, 49] of no less than 20 µM. The Kd [40, 49] was no less than 20 µM, the Kd [11, 49] was 0.0441 µM and the Kd [23, 49] was no less than 20 µM.
